Where no end group is shown, it is not given here.
Experiments:
PSMA Fab (006 PSMA Fab) [1] = molecular target: T1, PSMA Fab (006 PSMA Fab); experiment: phage ELISA; clonal phage supernatant on biotinylated PSMA Fab captured on neutravidin plate, anti-M13 HRP detection
T1 construct: also called Anti-PSMA Fab; anti-PSMA Fab
Experimental: (§1) Clonal phage were harvested as crude supernatants and screened via standard ELISAs. […] Prior to the addition of clonal phage. wells were incubated with blocking buffer and PSMA antigen or blocking buffer alone. Without washing or aspirating, clonal phage supernatants were then added to the wells and incubated for a short time. Wells were then washed followed by detection of bound phage using a horse radish conjugated anti-M13 antibody.

PSMA Fab (006 PSMA Fab) [2] = molecular target: T1, PSMA Fab (006 PSMA Fab); experiment: phage ELISA; clonal phage on plate-captured PSMA Fab pre-incubated with PSMA antigen as competitor, anti-M13 HRP detection
Experimental: as §1

006 PSMA Fab [3] = molecular target: T2, 006 PSMA Fab (biotinylated (site not stated)); experiment: clonal phage ELISA on captured PSMA Fab, wells pre-incubated with PSMA antigen as competitor
T2 construct: also called Anti-PSMA Fab

006 PSMA Fab [4] = molecular target: T2, 006 PSMA Fab; experiment: clonal phage ELISA on biotinylated PSMA Fab captured on neutravidin, anti-M13-HRP detection;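 further: crude clonal phage supernatants added to wells preincubated with PSMA antigen in blocking buffer or with blocking buffer alone, brief binding period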
Experimental: as §1

Anti-PSMA Fab [5] = molecular target: T3, Anti-PSMA Fab; experiment: phage ELISA; PSMA Fab on plate pre-incubated with PSMA antigen (competitor), anti-M13-HRP detection
T3 construct: Biotinylated and captured on neutravidin coated plates in the panning ELISA; also called 006 PSMA Fab
Experimental: as §1

Anti-PSMA Fab [6] = molecular target: T3, Anti-PSMA Fab; experiment: phage ELISA; biotinylated PSMA Fab on neutravidin plate, clonal phage supernatant, anti-M13-HRP detection;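 further: wells were preincubated with blocking buffer containing PSMA antigen or with blocking buffer only, then phage supernatant was added without washing for a brief incubation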
Experimental: as §1

PSMA Fab [7] = molecular target: T4, PSMA Fab; experiment: clonal phage ELISA on captured PSMA Fab, wells pre-incubated with PSMA antigen as competitor, anti-M13-HRP detection;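 further: crude clonal phage supernatants added without washing after the PSMA preincubation, comparison wells received blocking buffer alone without PSMA, bound phage read after washing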
T4 construct: Biotinylated and captured on neutravidin plates in the phage ELISA; also called anti-PSMA Fab; 006 PSMA Fab
Experimental: as §1

PSMA Fab [8] = molecular target: T4, PSMA Fab; experiment: clonal phage ELISA on biotinylated PSMA Fab captured on neutravidin plates, anti-M13-HRP detection, no PSMA antigen
Experimental: as §1

Binder | Phage binding ELISA signal, Anti-PSMA Fab (PSMA Fab (006 PSMA Fab) [1]) | Phage binding ELISA signal, Anti-PSMA Fab with PSMA antigen (PSMA Fab (006 PSMA Fab) [2]) | Phage binding ELISA signal, Anti-PSMA Fab in presence of PSMA (Anti-PSMA Fab [5]) | Phage binding ELISA signal, Anti-PSMA Fab (Anti-PSMA Fab [6]) | other results
VEQMCKPEWMCKGF (tested as crude phage supernatant) [Phage-2931] | 2.3 | 0.109 |  |  | 
IDPMCKPLWMCAGF (cysteine pairing not given here; also: peptide displayed as fusion to phage pIII, Peptide-180 library clone, tested as clonal phage (peptide fused to pIII)) [Phage-2936] |  |  |  |  | Phage binding ELISA signal, Anti-PSMA Fab in presence of PSMA (006 PSMA Fab [3]): 0.145; Phage binding ELISA signal, Anti-PSMA Fab (006 PSMA Fab [4]): 2.29
LPRICVPEWMCLGF (also called peptide-180 library clone) [Phage-2918] |  |  | 0.0919 | 2.32 | 
VERACVPVWMCEGF (tested as crude phage supernatant) [Phage-2933] | 2.29 | 0.11 |  |  | 
GEPVCKPAWMCEGF (also called peptide-180 library clone) [Phage-2909] |  |  | 0.128 | 2.33 | 
VDRMCKPTWMCEGF (tested as crude phage supernatant) [Phage-2926] | 2.31 | 0.12 |  |  | 
AEMRCIPEWMCSGF (also called peptide-180 library clone) [Phage-2907] |  |  | 0.118 | 2.33 | 
VEPSCVPYWMCLGF (cysteine pairing not given here; also: peptide displayed as fusion to phage pIII, also called peptide-180 library clone) [Phage-2906] |  |  | 0.0835 | 2.33 | 
VDRMCVPKWMCEGL (also called peptide-180 library clone) [Phage-2916] |  |  | 0.0971 | 2.32 | 
TPIFCVPAWMCSGF (tested as crude phage supernatant) [Phage-2925] | 2.31 | 0.0946 |  |  | 
VDPMCIPRWMCSFL (also called peptide-180 library clone) [Phage-2919] |  |  | 0.0867 | 2.32 | 
IKPFCVPEWMCVAL (tested as crude phage supernatant) [Phage-2927] | 2.31 | 0.121 |  |  | 
EFNWCRPLWMCVGF (cysteine pairing not given here; also: peptide displayed as fusion to phage pIII, Peptide-180 library clone, tested as clonal phage (peptide fused to pIII of the bacteriophage)) [Phage-2934] |  |  |  |  | Phage binding ELISA signal, Anti-PSMA Fab in presence of PSMA (006 PSMA Fab [3]): 0.157; Phage binding ELISA signal, Anti-PSMA Fab (006 PSMA Fab [4]): 2.29
VFPACVPNWMCVGF [Phage-2904] |  |  |  |  | phage binding ELISA signal in presence of PSMA (PSMA Fab [7]): 0.129; phage binding ELISA signal (PSMA Fab [8]): 2.33
IVPACKPVWMCDGF (tested as crude phage supernatant) [Phage-2928] | 2.31 | 0.11 |  |  | 
AVPLCMPKWMCTGF (also called peptide-180 library clone) [Phage-2910] |  |  | 0.0971 | 2.33 | 
NIPHCVPAWMCIGF (tested as crude phage supernatant) [Phage-2929] | 2.31 | 0.109 |  |  | 

Binder | Phage binding ELISA signal, Anti-PSMA Fab (PSMA Fab (006 PSMA Fab) [1]) | Phage binding ELISA signal, Anti-PSMA Fab with PSMA antigen (PSMA Fab (006 PSMA Fab) [2]) | Phage binding ELISA signal, Anti-PSMA Fab in presence of PSMA (Anti-PSMA Fab [5]) | Phage binding ELISA signal, Anti-PSMA Fab (Anti-PSMA Fab [6]) | other results
MHMLCRPAWMCSGF (tested as crude phage supernatant) [Phage-2932] | 2.29 | 0.21 |  |  | 
TQALCVPSWMCDGF (tested as crude phage supernatant) [Phage-2930] | 2.3 | 0.0747 |  |  | 
GGLLCKPAWMCNWL (also called peptide-180 library clone) [Phage-2915] |  |  | 0.116 | 2.32 | 
VTPACVPTWMCYGF [Phage-2903] |  |  |  |  | phage binding ELISA signal in presence of PSMA (PSMA Fab [7]): 0.116; phage binding ELISA signal (PSMA Fab [8]): 2.34
VWPRCEPQWMCAGF (cysteine pairing not given here; also: peptide displayed as fusion to phage pIII, tested as crude phage supernatant; The label 2923 is printed twice (r2444 and r2446); by the order this row is probably Phage-2922; also called probably Phage-2922) [Phage-2923 (as printed at r2443/r2444; SEQ ID NO: 3238)] | 2.31 | 0.0854 |  |  | 
LGLACIPEWMCVGF (also called peptide-180 library clone) [Phage-2908] |  |  | 0.0789 | 2.33 | 
AVHYCQPSWMCTGF (also called peptide-180 library clone) [Phage-2912] |  |  | 0.0814 | 2.33 | 
IHPVCKPDWMCAGF (cysteine pairing not given here; also: peptide fused to pIII, Peptide-180 library clone, tested as clonal phage (peptide fused to pIII)) [Phage-2935] |  |  |  |  | Phage binding ELISA signal, Anti-PSMA Fab in presence of PSMA (006 PSMA Fab [3]): 0.0823; Phage binding ELISA signal, Anti-PSMA Fab (006 PSMA Fab [4]): 2.29
GLALCKPEWMCIGF (also called peptide-180 library clone) [Phage-2914] |  |  | 0.0815 | 2.32 | 
GERWCTPPWMCVGL (also called peptide-180 library clone) [Phage-2913] |  |  | 0.116 | 2.32 | 
EKPVCVPSWMCTGF (also called peptide-180 library clone) [Phage-2911] |  |  | 0.098 | 2.33 | 
PSHYCVPAWMCAGF (cysteine pairing not given here; also: peptide displayed as fusion to phage pIII) [Phage-2905] |  |  |  |  | phage binding ELISA signal in presence of PSMA (PSMA Fab [7]): 0.0875; phage binding ELISA signal (PSMA Fab [8]): 2.33
LDVLCKPTWMCMGF (also called peptide-180 library clone) [Phage-2917] |  |  | 0.0821 | 2.32 | 
LAIMCRPAWMCSGF (tested as crude phage supernatant) [Phage-2920] | 2.31 | 0.112 |  |  | 
ISHMCKPVWMCSGL (tested as crude phage supernatant) [Phage-2921] | 2.31 | 0.125 |  |  | 
VPKMCTPPWMCWGF (tested as crude phage supernatant) [Phage-2923] | 2.31 | 0.0934 |  |  | 
VGKMCVPEWMCHGF (tested as crude phage supernatant) [Phage-2924] | 2.31 | 0.082 |  |  | 
